The values that follow come from the supplement of paper PMC10567573.

B1: SETD8 (parent)
chain: FVVEYHGDLIEITDAKKREALYAQ
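Further: lentivirally expressed fusions sorted by FACS into six bins by GFP to DsRed ratio, PSI derived from sequencing read proportions per bin multiplied by bin number.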

The data set covers variants of B1. Briefly: protein stability index of a GFP-peptide fusion (GPS, HEK-293T) (PSI 1-6); higher = more stable. The conditions noted are these: c terminus: a fixed tail appended.
For FVVEYHGDLYEITDAKKREALYAQ [I10Y], the protein stability index came out at 1.61.
For FVVEYHGDLHEITDAKKREALYAQ [I10H], the protein stability index worked out at 1.64.
As for FVVEYHGDLCEITDAKKREALYAQ [I10C], the protein stability index is 1.99.
In the case of FVVEYHGDLMEITDAKKREALYAQ [I10M] it was 1.67.
The same measure for FVVEYHGDLPEITDAKKREALYAQ [I10P]: 2.25; for FVVEYHGDLWEITDAKKREALYAQ [I10W]: 1.21.
As for FVVEYHGDLAEITDAKKREALYAQ [I10A], the protein stability index came to 2.08.
In the case of FVVEYHGDLFEITDAKKREALYAQ [I10F] it was 2.1.
In the case of FVVEYHGDLGEITDAKKREALYAQ [I10G] it was 2.11; in that of FVVEYHGDLVEITDAKKREALYAQ [I10V], 1.56.
For FVVEYHGDLSEITDAKKREALYAQ [I10S], the protein stability index worked out at 2.21.
In the case of FVVEYHGDLKEITDAKKREALYAQ [I10K] it was 2.28; in that of FVVEYHGDLNEITDAKKREALYAQ [I10N], 1.88; in that of FVVEYHGDLREITDAKKREALYAQ [I10R], 1.82.
In the case of FVVEYHGDLEEITDAKKREALYAQ [I10E] it was 2.21; in that of FVVEYHGDLTEITDAKKREALYAQ [I10T], 2.01; in that of FVVEYHGDLDEITDAKKREALYAQ [I10D], 2.58.
The same measure for FVVEYHGDLLEITDAKKREALYAQ [I10L]: 2.17; for FVVEYHGDLQEITDAKKREALYAQ [I10Q]: 2.5; for FHVEYHGDLIEITDAKKREALYAQ [V2H]: 3.65.
As for FKVEYHGDLIEITDAKKREALYAQ [V2K], the protein stability index came to 3.6.
In the case of FYVEYHGDLIEITDAKKREALYAQ [V2Y] it was 1.66.
In the case of FWVEYHGDLIEITDAKKREALYAQ [V2W] it was 1.32; in that of FNVEYHGDLIEITDAKKREALYAQ [V2N], 3.64; in that of FPVEYHGDLIEITDAKKREALYAQ [V2P], 4.09.
In the case of FTVEYHGDLIEITDAKKREALYAQ [V2T] it was 2.38; in that of FMVEYHGDLIEITDAKKREALYAQ [V2M], 2.49; in that of FEVEYHGDLIEITDAKKREALYAQ [V2E], 3.73.
FCVEYHGDLIEITDAKKREALYAQ [V2C]: the protein stability index came to 3.25.
In the case of FRVEYHGDLIEITDAKKREALYAQ [V2R] it was 3.02; in that of FQVEYHGDLIEITDAKKREALYAQ [V2Q], 3.12.
The same measure for FLVEYHGDLIEITDAKKREALYAQ [V2L]: 2.13.
The same measure for FSVEYHGDLIEITDAKKREALYAQ [V2S]: 2.97; for FAVEYHGDLIEITDAKKREALYAQ [V2A]: 3.83; for FIVEYHGDLIEITDAKKREALYAQ [V2I]: 1.83.
Consider FFVEYHGDLIEITDAKKREALYAQ [V2F], for which the protein stability index worked out at 2.19.
For the variant FDVEYHGDLIEITDAKKREALYAQ [V2D], the protein stability index stood at 4.2.
Regarding FGVEYHGDLIEITDAKKREALYAQ [V2G], the protein stability index stood at 3.95.
The same measure for FVVEYHFDLIEITDAKKREALYAQ [G7F]: 2.87; for FVVEYHVDLIEITDAKKREALYAQ [G7V]: 1.11; for FVVEYHNDLIEITDAKKREALYAQ [G7N]: 2.34.
In the case of FVVEYHSDLIEITDAKKREALYAQ [G7S] it was 1.89; in that of FVVEYHADLIEITDAKKREALYAQ [G7A], 1.56; in that of FVVEYHDDLIEITDAKKREALYAQ [G7D], 2.33.
The same measure for FVVEYHPDLIEITDAKKREALYAQ [G7P]: 2.65; for FVVEYHKDLIEITDAKKREALYAQ [G7K]: 1.66.
FVVEYHTDLIEITDAKKREALYAQ [G7T]: the protein stability index is 1.94.
In the case of FVVEYHHDLIEITDAKKREALYAQ [G7H] it was 2.08; in that of FVVEYHIDLIEITDAKKREALYAQ [G7I], 3.15.
In the case of FVVEYHEDLIEITDAKKREALYAQ [G7E] it was 2.33; in that of FVVEYHCDLIEITDAKKREALYAQ [G7C], 1.76.
In the case of FVVEYHMDLIEITDAKKREALYAQ [G7M] it was 1.08; in that of FVVEYHRDLIEITDAKKREALYAQ [G7R], 2.76; in that of FVVEYHQDLIEITDAKKREALYAQ [G7Q], 1.83.
Consider FVVESHGDLIEITDAKKREALYAQ [Y5S], for which the protein stability index worked out at 2.41.
The same measure for FVVECHGDLIEITDAKKREALYAQ [Y5C]: 2.05.
In the case of FVVEIHGDLIEITDAKKREALYAQ [Y5I] it was 1.95; in that of FVVERHGDLIEITDAKKREALYAQ [Y5R], 2.67; in that of FVVEDHGDLIEITDAKKREALYAQ [Y5D], 3.2.
As for FVVEVHGDLIEITDAKKREALYAQ [Y5V], the protein stability index amounted to 2.06.
In the case of FVVENHGDLIEITDAKKREALYAQ [Y5N] it was 2.73; in that of FVVEGHGDLIEITDAKKREALYAQ [Y5G], 2.4.
In the case of FVVEEHGDLIEITDAKKREALYAQ [Y5E] it was 3.86; in that of FVVEPHGDLIEITDAKKREALYAQ [Y5P], 3.03; in that of FVVELHGDLIEITDAKKREALYAQ [Y5L], 1.89.
In the case of FVVEQHGDLIEITDAKKREALYAQ [Y5Q] it was 2.93.
Take FVVEAHGDLIEITDAKKREALYAQ [Y5A]: the protein stability index worked out at 1.99.
The same measure for FVVEKHGDLIEITDAKKREALYAQ [Y5K]: 2.68; for FVVEMHGDLIEITDAKKREALYAQ [Y5M]: 2.11; for FVVEHHGDLIEITDAKKREALYAQ [Y5H]: 2.1.
In the case of FVVETHGDLIEITDAKKREALYAQ [Y5T] it was 2.32; in that of FVVEWHGDLIEITDAKKREALYAQ [Y5W], 1.43; in that of FVVEFHGDLIEITDAKKREALYAQ [Y5F], 1.88.
The same measure for FVVEYHGDLITITDAKKREALYAQ [E11T]: 2.43; for FVVEYHGDLIPITDAKKREALYAQ [E11P]: 2.62.
As to FVVEYHGDLISITDAKKREALYAQ [E11S], the protein stability index stood at 2.25.
The same measure for FVVEYHGDLIDITDAKKREALYAQ [E11D]: 2.36; for FVVEYHGDLIYITDAKKREALYAQ [E11Y]: 2.56.
As to FVVEYHGDLIFITDAKKREALYAQ [E11F], the protein stability index came to 2.92.
The same measure for FVVEYHGDLIKITDAKKREALYAQ [E11K]: 2.1.
In the case of FVVEYHGDLIHITDAKKREALYAQ [E11H] it was 2.25.
Take FVVEYHGDLIQITDAKKREALYAQ [E11Q]: the protein stability index stood at 2.51.
The same measure for FVVEYHGDLIAITDAKKREALYAQ [E11A]: 1.14; for FVVEYHGDLINITDAKKREALYAQ [E11N]: 2.04; for FVVEYHGDLIVITDAKKREALYAQ [E11V]: 1.96.
In the case of FVVEYHGDLIMITDAKKREALYAQ [E11M] it was 2.49; in that of FVVEYHGDLILITDAKKREALYAQ [E11L], 3.14.
Regarding FVVEYHGDLIRITDAKKREALYAQ [E11R], the protein stability index was 1.37.
Regarding FVVEYHGDLICITDAKKREALYAQ [E11C], the protein stability index turned out to be 3.07.
In the case of FVVEYHGDLIEKTDAKKREALYAQ [I12K] it was 2.75; in that of FVVEYHGDLIEETDAKKREALYAQ [I12E], 2.74; in that of FVVEYHGDLIEGTDAKKREALYAQ [I12G], 1.64.
In the case of FVVEYHGDLIEFTDAKKREALYAQ [I12F] it was 2.21.
On to FVVEYHGDLIEDTDAKKREALYAQ [I12D], for which the protein stability index was 2.22.
